In data set [1] the target is T1, human serum albumin (Homo sapiens, UniProt P02768). The data set is described as follows: Co-crystal structure and in silico modelling of peptide with human serum albumin. To be noted: crystal structure and modeling data. As to the method: The crystal structure was determined as follows: the purified proteins were used in crystallization trials employing both, a standard screen of approximately 1200 different conditions, as well as crystallization conditions identified using literature data. Conditions initially obtained have been optimized using standard strategies, systematically varying parameters critically influencing crystallization, such as temperature, protein concentration, drop ratio, etc. These conditions were also refined by systematically varying pH or precipitant concentrations. Crystals were obtained via the method of co-crystallization.
Crystals have been flash-frozen and measured at a temperature of 100K. The X-ray diffraction have been collected at the SWISS LIGHT SOURCE (SLS, Villigen, Switzerland) using cryogenic conditions. Data were processed using the programs XDS and XSCALE. The phase information necessary to determine and analyze the structure was obtained by molecular replacement. Subsequent model building and refinement was performed with the software packages CCP4 and COOT. The peptide parameterization was carried out with the program […].
Modeling of the interaction was performed using ICM-Pro (Molsoft) and Discovery Studio (Accelrys) with a force-field that is based on the parameters as described in Momany et al. (Momany et al. J. Phys. Chem. 1975, 79, 2361-2381)

Data set [2] has as its target T1, human serum albumin. As to the kind of experiment: Phage ELISA on HSA-coated plates. It is filed as binding. To be noted: phage clones; near-infrared fluorescence intensity vs phage dilution, FIG. 2. As to the method:
5-fold serial dilutions of phage clones (starting from ˜5×10^11 phage) were added to 96-well Nunc Maxisorp plates coated with human serum albumin (2 μg/ml in PBS, overnight at 4° C.; plates were blocked with Superblock T20 (Pierce) for 1 h at room temperature). The microtiter plate was washed with wash buffer (PBS, 0.05% Tween 20) and bound phages were detected with anti-M13 and goat-anti mouse IRDye conjugate (610-130-121, Rockland). The amount of IRDye bound was measured on Odyssey (LI-COR Biosciences). The dilution of phage was plotted against measured near-infrared fluorescence intensity (FIG. 2).

Data set [3] is described as follows: Pharmacokinetic profile in male cynomolgus monkeys: monovalent Nanobody 2D3 constructs. Format: in vivo, Cynomolgus monkey. To be noted: for exposure higher and total body clearance (CL) lower than after 2D3: on average, relative to control article 2D3; for AUCinf / C0: serum. As to the method: The pharmacokinetic profile of this 2D3-9GS-EXP56E4 Nanobody construct (“construct” or “test item” hereafter) was analysed in male cynomolgus monkeys of approximately 3 to 4 years old and was compared to the 2D3 control (“control” or “negative control” hereafter). The construct and the control were each injected in three monkeys. Both the construct and the control were administered at a dose of 2 mg/kg via intravenous infusion. Blood samples were taken at predose, 5 min, 20 min, 1 h, 2 h, 4 h, 8 h, and 16 h after administration and at test days 2, 3, 5, 7, 9, 12, 15, 18, 21, 24, 27, 30, 33, 36, 39, 42, 45, 48, 51, 54, and 57 after the start of the infusion. In order to obtain at least 0.25 mL serum per animal per sampling time, a sufficient volume of whole blood was withdrawn per sampling time and the serum was isolated after 1 h of incubation at 37° C. The serum samples were stored at −80° C.
Serum samples were tested for serum levels of construct and the control, respectively, using the following ELISA assay.
96-well microtiter plates (Maxisorp, Nunc, Wiesbaden, Germany) were coated for 1 hour at 37° C. with Recombinant Human ErbB2/Fc Chimera, C F (R&D Systems, Minneapolis) in PBS at 3 μg/mL for the negative control and 4.5 μg/mL for the test item. Wells were aspirated and blocked for 30 minutes at room temperature (RT) with SuperBlock®T20 PBS (Pierce, Rockford, Ill.). After this blocking step, wells were washed with PBS-0.05% Tween20.
Preparations for the standards, QC samples and dilutions of the test samples were performed in a non-coated (polypropylene) plate.
Standard curve and QC-samples: Solutions at the required concentrations were prepared in PBS 0.1% casein and spiked into 100% monkey serum. To prepare standards and QC samples, a 1/10 dilution of the pure monkey serum dilutions was made in PBS-0.1% casein.
Test samples: Dilution factors for the test samples were estimated, and varied from 1/10 to 1/500. Samples were diluted 1/10 in PBS 0.1% casein in a first step, and if needed, further dilution was done in PBS 0.1% casein containing 10% monkey serum. These sample dilutions were further serially diluted 1/5 in PBS 0.1% casein with 10% monkey serum over 2 wells.
Standards, QC samples and the 1/5 dilutions of the test samples were transferred onto the coated plate and incubated for 1 hour at RT. Afterwards the plates were washed and rabbit polyclonal anti-VHH K1, purified against protein A and Her2/Fc depleted, was added at 1 μg/mL in PBS 0.1% casein, and incubated for 1 hour at RT. After washing a 1/2000 dilution in PBS 0.1% casein of horse radish peroxidase labelled goat anti-rabbit (Dakocytomation, Denmark) was added to the plate and incubated for 30 minutes at RT. This enzyme catalyzes a chemical reaction with the substrate sTMB (3,3′,5,5′-tetramethylbenzidine, SDT reagents, Brussels, Belgium), which results in a colorimetric change. After stopping this reaction after 15 minutes using HCl (1N), the intensity of the colour was measured by a spectrophotometer, which determines the optical density of the reaction product, using a 450 nm wavelength of light.
The concentration of the construct and the control in the serum samples was determined towards a standard curve of the construct and the control, respectively. The concentration determination was performed using the sigmoidal dose-response curve with variable slope. All serum samples were tested minimally in duplicate. Average values were reported. For each sample standard deviations and precision between the different results was calculated.
For blood sampling and processing, the pharmacokinetic profile of the constructs (2D3-9GS-EXP56E4 and 2D3-9GS-EXP59C2) and the negative control 2D3 were determined in male Cynomolgus monkeys of approximately 3 to 4 years old and was compared to that of the control (2D3). The constructs and the control were administered to three monkeys at a dose of 2 mg/kg by intravenous bolus injection. […]

In data set [4] the target is Cynomolgus monkey serum albumin (Macaca fascicularis, UniProt A2V9Z4). The data set is described as follows: Surface plasmon resonance (BIAcore 3000) of 2D3-9GS-56E4 and 2D3-9GS-59C2, Example 11. To be noted: for ka: untagged constructs. Format: binding. How it is done:
(§1) The binding was determined in BIAcore™ 3000, by injecting concentration series of the fusion proteins ranging from 2 μM to 200 nM on a CM5 chip coated with ˜3000 RU HSA or CSA. Coating of the chip (CM5) was performed by amine coupling using NHS/EDC for activation and ethanolamine for deactivation (Biacore amine coupling kit). HBS-EP was used as flow buffer at a rate of 45 μl min-1. 90 μl of sample was injected for 120 s.

For data set [5], the target named is T1, human serum albumin. The description is as above. Format: binding. How it is done:
as §1

Data set [6] addresses T1, human serum albumin. As to the kind of experiment: Surface plasmon resonance (BIAcore 3000) of 2D3 fusion proteins, Example 6. Format: binding. As to the method:
(§2) The binding of the resulting 2D3-17D12 and 2D3-56H5 fusion proteins to human serum albumin was determined using surface plasmon resonance analysis. For this purpose, the fusion proteins were expressed in E. coli TG1 cells. The fusion proteins were purified by IMAC/SEC and binding to HSA was assessed in BIAcore™ 3000, by injecting 1 μM and 5 μM of the 2D3-17D12 and 2D3-56H5 fusion proteins on a CM5 chip coated with ˜7000 RU human serum albumin (Sigma, 99% pure) and 2460 RU an irrelevant protein antigen (reference). Coating of the chip (CM5) was performed by amine coupling using NHS/EDC for activation and ethanolamine for deactivation (Biacore amine coupling kit). HBS-EP was used as flow buffer at a rate of […]. 20 μl of sample was injected for 120 s. The 2D3 Nanobody was injected as control.

The subject of data set [7] is irrelevant protein antigen. As to the kind of experiment: Surface plasmon resonance control on chip coated with irrelevant protein, Example 6. To be noted: 5 μM injected; CM5 chip coated with irrelevant protein (2400RU). Format: binding. As to the method:
as §2

The mark [8] stands for this setting: i.v. bolus 2 mg/kg, male Cynomolgus monkey, mean n = 3.

Like-named read-outs stand apart in the source and are kept apart here.

Cynomolgus monkey serum albumin, sequence (A2V9Z4 25-608): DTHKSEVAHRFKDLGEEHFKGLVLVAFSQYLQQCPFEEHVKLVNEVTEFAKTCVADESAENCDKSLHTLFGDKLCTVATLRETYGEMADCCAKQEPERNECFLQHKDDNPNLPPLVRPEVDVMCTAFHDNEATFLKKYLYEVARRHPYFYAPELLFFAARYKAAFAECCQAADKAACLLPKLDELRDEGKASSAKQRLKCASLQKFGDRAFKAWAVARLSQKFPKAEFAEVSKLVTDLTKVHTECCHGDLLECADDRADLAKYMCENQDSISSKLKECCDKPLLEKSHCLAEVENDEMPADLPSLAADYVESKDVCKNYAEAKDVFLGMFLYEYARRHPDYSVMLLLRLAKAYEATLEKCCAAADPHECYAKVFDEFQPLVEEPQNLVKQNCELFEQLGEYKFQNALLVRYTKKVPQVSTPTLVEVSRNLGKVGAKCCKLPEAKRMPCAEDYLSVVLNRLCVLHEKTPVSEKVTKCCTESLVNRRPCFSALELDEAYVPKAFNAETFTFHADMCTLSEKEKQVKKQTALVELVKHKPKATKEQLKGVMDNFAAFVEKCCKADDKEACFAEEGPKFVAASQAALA

Turning to “AAARYWDYDVFGGGTPVGGAAA [peptide of SEQ ID NO: 143, based on EXP56E4 with an additional N-terminal alanine and three C-terminal alanine residues]”, the “binding site on human serum albumin” value in data set [1] was “binds in a deep subpocket of domain I of human serum albumin”.
In the case of AAPYRDYDVFGGGTPRGE [56 F2], in data set [2], the “binding to HSA compared to the amino acid sequence of SEQ ID NO: 1” value is on record as “stronger binding”.
The same measure, in the same setting: with AAYYYDYDVFGGGTPGGE [56 E2] the entry was “stronger binding”.

B1: 2D3-9GS-EXP56E4: SEQ ID NO: 142, fusion of peptide 56E4 and Nanobody 2D3 via 9GS linker (protein)
chain: EVQLVESGGSLVQPGGSLRLSCAASGFTFDDYAMSWVRQVPGKGLEWVSSINWSGTHTDYADSVKGRFTISRNNANNTLYLQMNSLKSEDTAVYYCAKNWRDAGTTWFEKSGSAGQGTQVTVSSGGGGSGGGSRYWDYDVFGGGTPVGG
In the case of B1, in data set [3] (cynomolgus monkeys, 2 mg/kg intravenous infusion, Table IV), the “Terminal Half-life” value was determined as 8.54 ± 0.79 h. Further, in data set [3] (setting [8]), the Vdss is 0.0503 L/kg, the AUCinf worked out at 458 µg·h/mL and the C0 amounted to 66.8 µg/mL. The “t½ (terminal half-life)” value in data set [3] (i.v. bolus 2 mg/kg, male Cynomolgus monkey, mean n = 3, 2 mg/kg) was determined as 8.54 h. Moreover, the “exposure higher and total body clearance (CL) lower than after 2D3” value in data set [3] came out at 23 fold. Besides, in data set [3] (relative to 2D3), the “mean Vdss lower compared to 2D3” value is given as 2.3 fold and the “terminal half-life (t½) increase relative to 2D3” value was 4.2 fold. Also, in data set [4], the “koff (dissociation rate constant)” value came out at 0.00847 s⁻¹ and the ka is listed as 1.71E+04 1/ms. The “Kd” value in data set [5] (dissociation rate) is 0.00497 s⁻¹. For the same molecule, the Kd in data set [5] (read-out: KD) was 342 nM. Moreover, the ka in data set [5] (untagged constructs) is given as 1.04E+04 1/ms.

B2: 2D3-9GS-59C2: SEQ ID NO: 164, 59C2 without the two N-terminal alanines fused via 9GS linker to C-terminus of 2D3 (protein)
chain: EVQLVESGGSLVQPGGSLRLSCAASGFTFDDYAMSWVRQVPGKGLEWVSSINWSGTHTDYADSVKGRFTISRNNANNTLYLQMNSLKSEDTAVYYCAKNWRDAGTTWFEKSGSAGQGTQVTVSSGGGGSGGGSRDWDFDVFGGGTPVGG
With B2, in data set [3] (setting [8]), the Vdss is 0.0455 L/kg, the AUCinf worked out at 1540 µg·h/mL and the C0 was determined as 62.5 µg/mL. Also, the “exposure higher and total body clearance (CL) lower than after 2D3” value in data set [3] came out at 77 fold. Besides, the “mean Vdss lower compared to 2D3” value in data set [3] (relative to 2D3) is reported as 2.6 fold. In addition, in data set [4], the “koff (dissociation rate constant)” value was determined as 0.00247 s⁻¹ and the ka is given as 8.98E+03 1/ms.

B3: 2D3-56H5: SEQ ID NO: 139, fusion of Nanobody 2D3 and peptide 56H5 with Myc-His tag (protein)
chain: EVQLVESGGSLVQPGGSLRLSCAASGFTFDDYAMSWVRQVPGKGLEWVSSINWSGTHTDYADSVKGRFTISRNNANNTLYLQMNSLKSEDTAVYYCAKNWRDAGTTWFEKSGSAGQGTQVTVSSGGGGSGGGSAAAFYDDYDVFGGGTPAGGAAAEQKLISEEDLNGAAHHHHHH
modifications: Myc-His tag; fusion protein
For B3, in data set [6] (1 μM and 5 μM injected, comparison with 2D3-17D12 fusion protein), the “binding to HSA (surface plasmon resonance, FIG. 5)” value is reported as “improved binding”. In data set [6] (CM5 chip ~7000 RU HSA), this molecule displayed a ka of 7570 M⁻¹ s⁻¹ and a kd of 0.0093 s⁻¹. In addition, the “specific binding to irrelevant protein” value in data set [7] is on record as “no specific binding was detected”.

The values are drawn from US8217140B2, “Peptides capable of binding to serum proteins and compounds, constructs and polypeptides comprising the same” (Ablynx N.V., priority 2008, dated 2012).
